# Measured values published in publication PMC10267580.
# Target: Rab6B^Q72L, GTPase domain (residues 8-176), constitutively active mutant (mouse) (UniProt P61294)
# Assay: ITC; MicroCal PEAQ-ITC, 25 °C, 50 mM Tris pH 7.5, 100 mM NaCl, 2 mM MgCl2; typically one protein (400 μM) in the syringe into its binding protein (40 μM) in the cell
# Rab6B^Q72L, GTPase domain (residues 8-176), constitutively active mutant (mouse), sequence (P61294 8-176 Q72L): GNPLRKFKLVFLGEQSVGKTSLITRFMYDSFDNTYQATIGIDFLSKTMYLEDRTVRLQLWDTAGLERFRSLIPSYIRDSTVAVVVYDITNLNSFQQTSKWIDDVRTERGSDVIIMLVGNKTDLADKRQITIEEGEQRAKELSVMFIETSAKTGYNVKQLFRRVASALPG
substance,measurement,value
"ELKS2_RBD, the region of ELKS2 corresponding to ELKS1 residues 849-922 (domain or fragment)",Kd,8 µM
